# Measured values from US10465005B2, “JAML specific binding agents, antibodies, and uses related thereto” (Emory University, priority 2011, dated 2019).
# Entries after “also recorded” stand apart in the source; their conditions may differ.
# T1: JAML binding with CAR (Homo sapiens, UniProt Q86YT9)
# T1 construct: soluble JAMLD1D2 was truncated and tagged after residue Leucine259; made in house; host or cells: HEK293T (sJAML-His)
# T1 sequence (Q86YT9 20-259): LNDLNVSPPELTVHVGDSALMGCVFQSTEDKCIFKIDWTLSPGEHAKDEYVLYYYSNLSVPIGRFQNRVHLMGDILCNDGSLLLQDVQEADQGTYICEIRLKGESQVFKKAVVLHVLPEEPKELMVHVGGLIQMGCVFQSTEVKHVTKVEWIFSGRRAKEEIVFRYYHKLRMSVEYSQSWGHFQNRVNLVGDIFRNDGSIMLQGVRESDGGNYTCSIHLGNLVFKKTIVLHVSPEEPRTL
# T2: CAR on CHO-CAR cells (Homo sapiens, UniProt P78310)
# T2 construct: The full length gene of CAR was cloned into pcDNA3.1-Hygromycin; expressed in transfected cells
# T2 sequence (P78310 20-365): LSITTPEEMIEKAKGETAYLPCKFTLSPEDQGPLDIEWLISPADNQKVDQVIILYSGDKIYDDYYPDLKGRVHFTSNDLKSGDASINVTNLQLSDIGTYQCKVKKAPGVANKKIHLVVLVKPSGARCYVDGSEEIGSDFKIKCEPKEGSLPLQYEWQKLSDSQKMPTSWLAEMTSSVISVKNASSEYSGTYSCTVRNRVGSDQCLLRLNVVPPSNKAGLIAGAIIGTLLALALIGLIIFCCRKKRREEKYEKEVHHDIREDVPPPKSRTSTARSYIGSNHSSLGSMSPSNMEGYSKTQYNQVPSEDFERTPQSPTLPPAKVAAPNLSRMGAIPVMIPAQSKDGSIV
# B1: DW100: monoclonal anti-human JAML antibody (IgG1,κ), hybridoma ATCC PTA-13051; VH SEQ ID NO:19, VL SEQ ID NO:22 (antibody, V domains shown)
# VH: DVQLVESGAELVRPGASKLSCKALAYTFTDYEMHWVKQTPVHGLEWIGIIHPGSGGTVYNQKFKGKATLTADKSSSTAYMELSSLTSEDSTVYYCTRRRYYGSSYNWYFDVWGAGN
# VL: VLTQSPASLAASVGETVTITCRASENIYYSLAWYQQKQGKSPQLLIYNANSLEDGVPSRFSGSGSGTQYSLKINSMQPEDTATYFCEQTYDVPLTFGAGTKLEL
# B2: sJAML: recombinant soluble fragment of JAML.D1D2 tagged with 10 His residues at the C-terminus (protein)
# chain: LNDLNVSPPELTVHVGDSALMGCVFQSTEDKCIFKIDWTLSPGEHAKDEYVLYYYSNLSVPIGRFQNRVHLMGDILCNDGSLLLQDVQEADQGTYICEIRLKGESQVFKKAVVLHVLPEEPKELMVHVGGLIQMGCVFQSTEVKHVTKVEWIFSGRRAKEEIVFRYYHKLRMSVEYSQSWGHFQNRVNLVGDIFRNDGSIMLQGVRESDGGNYTCSIHLGNLVFKKTIVLHVSPEEPRTL
# Assays:
# [1] = system: PMN transepithelial migration; assay: PMN transepithelial migration; assay type: cell-based, human
# JAML binding with CAR = biological target: T1, JAML binding with CAR; assay: CAR binding assay (ELISA, CAR-GST on immobilized sJAML-His); conditions: CAR-GST 10 μg/ml on immobilized sJAML-His preincubated with antibody; FIG. 1C
# Experimental: FIG. 1C. CAR binding assay: sJAML-His was coated in Immulon II microtiter microtiter wells overnight, at 4° C. Microtiter wells were washed and blocked and 100 μl antibody solutions were added to wells for 1 hour RT. After washing, CAR-GST was added at 10 μg/ml for 1 hour RT, washed and the assay was developed with HRP conjugated goat anti GST followed by ABTS and OD measurement at 405 nm.
# Because certain antibodies recognize the membrane distal domain of JAML, their ability to inhibit binding to CAR was tested. By ELISA, the levels of soluble CAR-GST bound to immobilized sJAML-His preincubated with anti JAML antibodies was measured. […] Thus, these antibodies recognize three different epitopes on JAML and that both DW100 and DW55 bind epitopes close to the JAML binding site. Using a cell aggregation assay, the possibility that DW100 could inhibit the binding of JAML to CAR expressed on the surface of cells was examined. […] This again confirms previously described JAML binding to CAR, as well as the specificity of DW100 (blocking) and DW216 (non-blocking) Abs to JAML.
# CAR on CHO-CAR cells = biological target: T2, CAR on CHO-CAR cells; assay: Soluble JAML binding to CHO-CAR by flow cytometry; assay type: cell-based; conditions: sJAML 20 μg/ml, 1 h at 4° C., DW216 detection, FIG. 7A
# Experimental: CHO-K1 cells stably expressing CAR (CHO-CAR) were incubated with supernatants from PMA activated PLB cells (˜5˜10^7 cell activated in 1 ml, left panel) or recombinant soluble JAML-His (sJAML, 20 μg/ml, right panel) for 1 h at 4° C. JAML binding to CAR on the cell surface was measured by flow cytometry and compared to CHO-CAR cells alone (NoTx). The flow micrograph is representative of 4 independent experiments.
# As it has been established that epithelial CAR is the ligand for JAML on PMN. Whether shed JAML, as well as the recombinant protein could bind to CAR was investigated. To do this, CHO cells stably expressing CAR protein (CHO-CAR) were incubated with either supernatants from PMA activated differentiated PLB-985 (that release high levels of soluble JAML upon activation, (FIG. 2)), or recombinant soluble JAML and stained with DW216 to detect bound JAML. […] The same observation was verified by IF (FIG. 7B). […] The calcium depletion disrupts intercellular junctions of the epithelium and allows for better penetration of soluble JAML.
Molecule,inhibitory effect on PMN transepithelial migration [1] [%],inhibition of CAR binding to JAML (JAML binding with CAR),JAML binding to CHO-CAR (CAR on CHO-CAR cells)
B1,~15,inhibit human JAML binding with CAR; also recorded: completely inhibited JAML/CAR interactions; also recorded: completely inhibited binding of JAML to CAR,–
B2,–,–,JAML binding to CHO-CAR was detected in both cases
